According to the PETadex activity labels (doi:10.1002/cbic.202200516):

B1: unnamed (protein)
chain: MDGVLWRVRTAALMAALLALAAWALVWASPSVEAQSNPYQRGPNPTRSALTADGPFSVATYTVSRLSVSGFGGGVIYYPTGTSLTFGGIAMSPGYTADASSLAWLGRRLASHGFVVLVINTNSRFDYPDSRASQLSAALNYLRTSSPSAVRARLDANRLAVAGHSMGGGGTLRIAEQNPSLKAAVPLTPWHTDKTFNTSVPVLIVGAEADTVAPVSQHAIPFYQNLPSTTPKVYVELDNASHFAPNSNNAAISVYTISWMKLWVDNDTRYRQFLCNVNDPALSDFRTNNRHCQ
B2: unnamed (protein)
chain: MAVMTPRRERSSLLSRALQVTAAAATALVTAVSLAAPAHAANPYERGPNPTDALLEASSGPFSVSEENVSRLSASGFGGGTIYYPRENNTYGAVAISPGYTGTEASIAWLGERIASHGFVVITIDTITTLDQPDSRAEQLNAALNHMINRASSTVRSRIDSSRLAVMGHSMGGGGTLRLASQRPDLKAAIPLTPWHLNKNWSSVTVPTLIIGADLDTIAPVATHAKPFYNSLPSSISKAYLELDGATHFAPNIPNKIIGKYSVAWLKRFVDNDTRYTQFLCPGPRDGLFGEVEEYRSTCPF
B3: unnamed (protein)
chain: MNFPRASRLMQAAVLGGLMAVSAAATAQTNPYARGPNPTAASLEASAGPFTVRSFTVSRPSGYGAGTVYYPTNAGGTVGAIAIVPGYTARQSSIKWWGPRLASHGFVVITIDTNSTLDQPSSRSSQQMAALRQVASLNGTSSSPIYGKVDTARMGVMGWSMGGGGSLISAANNPSLKAAAPQAPWDSSTNFSSVTVPTLIFACENDSIAPVNSSALPIYDSMSRNAKQFLEINGGSHSCANSGNSNQALIGKKGVAWMKRFMDNDTRYSTFACENPNSTRVSDFRTANCS

substrate: BHET; details: 50 °C

Row | Protein | Km | kcat | kcat/Km
1 | B1 | 960 µM | 6.2 s⁻¹ | 6460 M⁻¹ s⁻¹
2 | B2 | 230 µM | 1.1 s⁻¹ | 4780 M⁻¹ s⁻¹

substrate: MHET; details: 50 °C

Row | Protein | Km | kcat | kcat/Km
3 | B1 | 1200 µM | 0.048 s⁻¹ | 40 M⁻¹ s⁻¹
4 | B2 | 3800 µM | 0.043 s⁻¹ | 11.3 M⁻¹ s⁻¹

substrate: PET-02mer; details: 50 °C

Row | Protein | Km | kcat | kcat/Km
5 | B1 | 790 µM | 300 s⁻¹ | 380000 M⁻¹ s⁻¹
6 | B2 | 170 µM | 62 s⁻¹ | 365000 M⁻¹ s⁻¹

substrate: BHET; details: 50 °C; part of the chain shown

Row | Protein | Km | kcat | kcat/Km
7 | B3 | 1400 µM | 4.8 s⁻¹ | 3430 M⁻¹ s⁻¹

substrate: PET-02mer; details: 50 °C; part of the chain shown

Row | Protein | Km | kcat | kcat/Km
8 | B3 | 58 µM | 23 s⁻¹ | 397000 M⁻¹ s⁻¹
